Laboratory results from article PMC3906830 (The Febs Journal, 2013).

Target: T1, mature myostatin (human, UniProt O14793 267-375)
T1 sequence (looked up): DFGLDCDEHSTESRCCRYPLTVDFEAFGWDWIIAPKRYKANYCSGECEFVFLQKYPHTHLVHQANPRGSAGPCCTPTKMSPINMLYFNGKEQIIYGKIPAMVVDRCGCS
Experiment: SPR

B1: N-terminal region of myostatin prodomain (PRO43-115) (domain or fragment, human, UniProt O14793 43-115, looked up)
chain: TWRQNTKSSRIEAIKIQILSKLRLETAPNISKDVIRQLLPKAPPLRELIDQYDVQRDDSSDGSLEDDDYHATT
- Kd: 3.7 µM
